Reference: the supplement of paper PMC12338614
± gives the uncertainty stated by the source.

B1: library; numbered along this chain (parent)
chain: MEVVDPQQLGMFTEGELMSVGMDTFIHRIDSTEVIYQPRRKRAKLIGKYLMGDLLGEGSYGKVKEVLDSETLCRRAVKILKKKKLRRIPNGEANVKKEIQLLRRLRHKNVIQLVDVLYNEEKQKMYMVMEYCVCGMQEMLDSVPEKRFPVCQAHGYFCQLIDGLEYLHSQGIVHKDIKPGNLLLTTGGTLKISDLGVAEALHPFAADDTCRTSQGSPAFQPPEIANGLDTFSGFKVDIWSAGVTLYNITTGLYPFEGDNIYKLFENIGKGSYAIPGDCGPPLSDLLKGMLEYEPAKRFSIRQIRQHSWFRKKHPPAEAPVPIPPSPDTKDRWRSMTVVPYLEDLHGADEDEDLFDIEDDIIYTQDFTVPGQVPEEEASHNGQRRGLPKAVCMNGTEAAQLSTKSRAEGRAPNPARKACSASSKIRRLSACKQQ

Variants of: B1
Test: STK11 functional score (HeLa growth suppression), rescaled enrichment; synonymous median = 1, nonsense median = 0 (normalised score)
Settings: with HeLa; variant type: missense
Experimental: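 Deep mutational scan (TileSeq/POPCode codon randomisation) of full-length codon-optimised STK11 cDNA integrated at a Bxb1 landing pad (AAVS1) in HeLa cells. Restoring functional STK11 suppresses HeLa proliferation. Variant frequencies were measured by NGS before and after about two weeks of growth. The error-corrected enrichment log-ratio was rescaled so that synonymous median = 1 and nonsense median = 0, scores above 1 were compressed, and codon-level and three biological replicate scores were combined; error is the bootstrapped standard error. Scale: synonymous median = 1, nonsense median = 0; below 0.5 = damaging.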

Variant | STK11 functional score
MEVVDPQQLGMFTEGELMSVGMDTFIHRIDSTEVIYQPRRHRAKLIGKYLMGDLLGEGSYGKVKEVLDSETLCRRAVKILKKKKLRRIPNGEANVKKEIQLLRRLRHKNVIQLVDVLYNEEKQKMYMVMEYCVCGMQEMLDSVPEKRFPVCQAHGYFCQLIDGLEYLHSQGIVHKDIKPGNLLLTTGGTLKISDLGVAEALHPFAADDTCRTSQGSPAFQPPEIANGLDTFSGFKVDIWSAGVTLYNITTGLYPFEGDNIYKLFENIGKGSYAIPGDCGPPLSDLLKGMLEYEPAKRFSIRQIRQHSWFRKKHPPAEAPVPIPPSPDTKDRWRSMTVVPYLEDLHGADEDEDLFDIEDDIIYTQDFTVPGQVPEEEASHNGQRRGLPKAVCMNGTEAAQLSTKSRAEGRAPNPARKACSASSKIRRLSACKQQ [K41H] | 1.44 ± 0.13
MEVVDPQQLGMFTEGELMSVGMDTFIHRIDSTEVIYQPRRKRAKLIGKYLMGDLLGEGSYGKVKEVLDSETLCRRAVKILKKKKLRRIPNGEANVKKEIQLLRRLRHKNVIQLVDVLYNEEKQKMYMVMEYCVCGMQEMLDSVPEKRFPVCQAHGYFCQLIDGLEYLHSQGIVHKDIKPGNLLLTTGGTLKISDLGVAEALHPFAADDTCRTSQGSPAFQPPEIANGLDTFSGFKVDIWSAGVTLYNITTGLYPFEGDNIYKLFENIGKGSYAIPGDCGPPLSDLLKGMLEYEPAKRFSIRQIRQHSWFRKKHPPAEAPVPIPPSPDTKDRWRSMTVVPYLEDLHGADEDEDLFDIEDDIIYTQDFTVPGQVPEEEASHNGQRRGLPKAVCMNGTEAAQLSTKNRAEGRAPNPARKACSASSKIRRLSACKQQ [S404N] | 1.52 ± 0.28
MEVVDPQQLGMFTEGELMSVGMDTFIHRIDSTEVIYQPRRKRAKLIGKYLMGDLLGEGSYGKVKEVLDSETLCRRAVKILKKKKLRRIPNGEANVKKEIQLLRRLRHKNVIQLVDVLYNEEKQKMYMVMEYCVCGMQEMLDSVPEKRFPVCQAHGYFCQLIDGLEYLHSQGIVHKDIKPGNLLLTTGGTLKISDLGVAEALHPFAADDTCRWSQGSPAFQPPEIANGLDTFSGFKVDIWSAGVTLYNITTGLYPFEGDNIYKLFENIGKGSYAIPGDCGPPLSDLLKGMLEYEPAKRFSIRQIRQHSWFRKKHPPAEAPVPIPPSPDTKDRWRSMTVVPYLEDLHGADEDEDLFDIEDDIIYTQDFTVPGQVPEEEASHNGQRRGLPKAVCMNGTEAAQLSTKSRAEGRAPNPARKACSASSKIRRLSACKQQ [T212W] | 1.41 ± 0.36
MEVVDPQQLGMFTEGELMSVGMDTFIHRIDSTEVIYQPRRKRAKLIGKYLMGDLLGEGSYGKVKEVLDSETLCRRAVKILKKKKLRRIPNGEANVKKEIQLLRRLRHKNVIQLVDVLYNEEKQKMYMVMEYCVCGMQEMLDSVPEKRFPVCQAHGYFCQLIDGLEYLHSQGIVHKDIKPGNLLLTTGGTLKISDLGVAEALHPFAADDTCRTSQGSPAFQPPEIANGLDTFSGFKVDIWSAGVTLYNITTGLYPFEGDNIYKLFENIGKGYYAIPGDCGPPLSDLLKGMLEYEPAKRFSIRQIRQHSWFRKKHPPAEAPVPIPPSPDTKDRWRSMTVVPYLEDLHGADEDEDLFDIEDDIIYTQDFTVPGQVPEEEASHNGQRRGLPKAVCMNGTEAAQLSTKSRAEGRAPNPARKACSASSKIRRLSACKQQ [S271Y] | -0.251 ± 0.55
MEVVDPQQLGMFTEGELMSVGMDTFIHRIDSTEVIYQPRRKRAKYIGKYLMGDLLGEGSYGKVKEVLDSETLCRRAVKILKKKKLRRIPNGEANVKKEIQLLRRLRHKNVIQLVDVLYNEEKQKMYMVMEYCVCGMQEMLDSVPEKRFPVCQAHGYFCQLIDGLEYLHSQGIVHKDIKPGNLLLTTGGTLKISDLGVAEALHPFAADDTCRTSQGSPAFQPPEIANGLDTFSGFKVDIWSAGVTLYNITTGLYPFEGDNIYKLFENIGKGSYAIPGDCGPPLSDLLKGMLEYEPAKRFSIRQIRQHSWFRKKHPPAEAPVPIPPSPDTKDRWRSMTVVPYLEDLHGADEDEDLFDIEDDIIYTQDFTVPGQVPEEEASHNGQRRGLPKAVCMNGTEAAQLSTKSRAEGRAPNPARKACSASSKIRRLSACKQQ [L45Y] | 0.913 ± 0.38
MEVVDPQQLGMFTEGELMSVGMDTFIHRIDSTEVIYQPRRKRAKLIGKYLMGDLLGEGSYGKVKEVLDSETLCRRAVKILKKKKLRRIPNGEANVKKEIQLLRRLRHKNVIQLVDVLYNEEKQKMYMVMEYCVCGMQEMLDSVPEKRFPVCQAHGYFCQLIDGLEYLHSQGIVHKDIKPGNLLLTTGGTLKISDLGVAEALHPFAADDTCRTSQGSPAFQPPEIANGLDTFSGFKVDIWSAGVTLYNITTGLYPFEGDNIYKLFENIGKGSYAIPGDCGPPLSDLLKGMLEYEPAKRFWIRQIRQHSWFRKKHPPAEAPVPIPPSPDTKDRWRSMTVVPYLEDLHGADEDEDLFDIEDDIIYTQDFTVPGQVPEEEASHNGQRRGLPKAVCMNGTEAAQLSTKSRAEGRAPNPARKACSASSKIRRLSACKQQ [S299W] | 1.24 ± 0.14
MEVVDPQQLGMFTEGELMSVGMDTFIHRIDSTEVIYQPRRKRAKLIGKYLMGDLLGEGSYGKVKEVLDSETLCRRAVKILKKKKLRRIPNGEANVKKEIQLLRRLRHKNVIQLVDVLYNEEKQKMYMVMEYCVCGMQEMLDSVPEKRFPVCQAHGYFCQLSDGLEYLHSQGIVHKDIKPGNLLLTTGGTLKISDLGVAEALHPFAADDTCRTSQGSPAFQPPEIANGLDTFSGFKVDIWSAGVTLYNITTGLYPFEGDNIYKLFENIGKGSYAIPGDCGPPLSDLLKGMLEYEPAKRFSIRQIRQHSWFRKKHPPAEAPVPIPPSPDTKDRWRSMTVVPYLEDLHGADEDEDLFDIEDDIIYTQDFTVPGQVPEEEASHNGQRRGLPKAVCMNGTEAAQLSTKSRAEGRAPNPARKACSASSKIRRLSACKQQ [I161S] | -0.0934 ± 0.18
